Source: paper PMC10593477 (Frontiers in Oncology, 2023)

Key:
[1] = molecular target: the molecule itself; assay: SEC; Superdex 200 Increase 10/300 GL; 200 μg of filtered antibody; DPBS, 0.5 mL/min; size from molecular weight calibration curves
[2] = molecular target: T1, recombinant uPAR-Biotin (human, UniProt Q03405 23-305, biotin); assay: BLI; BLItz; streptavidin biosensors coated with 16.7 μg/mL recombinant uPAR-Biotin; 400nM, 200nM and 100nM of VH, VH-Fc, DbTE, association 2 min; dissociation in DPBS 4 min; details: both partners purified
T1 construct: May be one of the bought proteins (uPAR-His or uPAR-Fc) after biotinylation

[3] = molecular target: T2, Human uPAR-His recombinant protein (human, UniProt Q03405 23-305); assay: ELISA; uPAR-His coated at 50 ng/well at 4°C overnight; 3-fold serially diluted binders 1 hour at 37°C; VH detected by anti-FLAG M2-HRP, VH-Fc or DbTE by HRP goat anti-human IgG1 Fc; details: both partners purified
T2 construct: also called recombinant human uPAR; CD87; source: bought: R&D system
T2 sequence (Q03405 23-305): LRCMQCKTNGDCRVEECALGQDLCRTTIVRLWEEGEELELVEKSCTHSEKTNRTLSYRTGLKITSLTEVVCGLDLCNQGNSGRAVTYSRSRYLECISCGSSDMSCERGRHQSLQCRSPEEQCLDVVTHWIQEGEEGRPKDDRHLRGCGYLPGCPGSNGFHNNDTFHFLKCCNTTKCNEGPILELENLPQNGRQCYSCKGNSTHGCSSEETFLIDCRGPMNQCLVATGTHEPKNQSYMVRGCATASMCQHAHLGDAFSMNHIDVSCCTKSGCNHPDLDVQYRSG

T1 sequence (Q03405 23-305): as above

| Kd [2] | koff [2] | kon [2] | EC50 [3] | Binder | stoichiometry N [1] |
| --- | --- | --- | --- | --- | --- |
| 1.7 nM | 3.6e-05 s⁻¹ | 21000 M⁻¹ s⁻¹ | 34.2 ± 3.5 nM | VH 115 (VHH, Human single VH domain antibody (not a camelid VHH); source: E.coli TopF expression system, purified on Ni-NTA columns) VHH: EVQLVESGGGLVQPGGSLRLSCKGSGFTFGDYAIGWVRQAPGQRLEWIGWINTNSGSPKYAQGFTGRFTISRDNSKNTLYLQMNSLRAEDTAVYYCATDVVVPWGQGSQVTVSS | 2 |
| 71.1 nM | 0.0024 s⁻¹ | 33000 M⁻¹ s⁻¹ | 6.6 ± 0.2 nM | VH-Fc 115 (Fc fusion, human, VH cloned into the pcDNA-IgG1 Fc vector; source: Expi293, transiently transfected, purified by protein A resin; not shown: Fc (human IgG1), C-terminal, kept) VH: EVQLVESGGGLVQPGGSLRLSCKGSGFTFGDYAIGWVRQAPGQRLEWIGWINTNSGSPKYAQGFTGRFTISRDNSKNTLYLQMNSLRAEDTAVYYCATDVVVPWGQGSQVTVSS | 2 |
| 17.1 nM | 0.0014 s⁻¹ | 79000 M⁻¹ s⁻¹ | 12.1 ± 0.8 nM | VH 3 (VHH, Human single VH domain antibody (not a camelid VHH); Monomeric by SEC; also called clone 3; anti-uPAR VH 3; source: E.coli TopF expression system, purified on Ni-NTA columns) VHH: EVQLVESGGGLVQPGGSLRLSCAASGFTFSRYWMSWVRQAPGKALEWIGEINHSGSTNYNPSLKSLVTISRDNSKNTLYLQMNSLRAEDTATYYCARSLVPALSYYYYYGMDVWGQGTTVTVSS |  |
| 9.6 nM | 0.0012 s⁻¹ | 120000 M⁻¹ s⁻¹ | 64.3 ± 2.3 nM | VH-Fc 3 (Fc fusion, human, VH 3 domain, as m1; VH cloned into the pcDNA-IgG1 Fc vector; source: Expi293, transiently transfected, purified by protein A resin; not shown: Fc (human IgG1), C-terminal, kept) VH: EVQLVESGGGLVQPGGSLRLSCAASGFTFSRYWMSWVRQAPGKALEWIGEINHSGSTNYNPSLKSLVTISRDNSKNTLYLQMNSLRAEDTATYYCARSLVPALSYYYYYGMDVWGQGTTVTVSS |  |
